Reference: patent US20230212319A1, “NOVEL ANTIGEN BINDING DOMAINS AND SYNTHETIC ANTIGEN RECEPTORS INCORPORATING THE SAME” (University of Southern California, priority 2020, published 2023)

B1: 22104 (protein)
chain: MALPVTALLLPLALLLHAARPDIQMTQSPSSLSASVGDRVTITCKASDHINNWLAWYQQKPGQAPKLLIYGATTLETGVPSRFSGSGSGTDYTLTISSLQPEDFATYYCQQSWNTPWTFGQGTKLEIKRLEDLKNVFPPEVAVFEPSEAEISHTQKATLVCLATGFYPDHVELSWWVNGKEVHSGVCTDPQPLKEQPALNDSRYCLSSRLRVSATFWQNPRNHFRCQVQFYGLSENDEWTQDRAKPVTQIVSAEAWGRADCGFTSESYQQGVLSATILYEILLGKATLYAVLVSALVLMAMVKRKDSRGRAKRSGSGATNFSLLKQAGDVEENPGPTSATMDWIWRILFLVGAATGAHSGPQVQLQESGGGLAQAGGSLRLSCAASGRTFSMGWFRQAPGKEREFVAAITYSGGSPYYASSVRGRFTISRDNAKNTVYLQMNSLKPEDTAVYYCAANPTYGSDWNAENWGQGTQVTVSSGSGGGGSGGGGSGGGGSFEQVQLQQPGAELVKPGASVKMSCKASGYAFSSYWINWMKQKPGQGLEWIGQIYPGDGDTNYNGKFKGRATLTADTSSSTAYMQLSSLTSEDSAVYFCARSITTVVGCAMDYWGQGTSVTVSSTRIQNPDPAVYQLRDSKSSDKSVCLFTDFDSQTNVSQSKDSDVYITDKCVLDMRSMDFKSNSAVAWSNKSDFACANAFNNSIIPEDTFFPSPESSCDVKLVEKSFETDTNLNFQNLSVIGFRILLLKVAGFNLLMTLRLWSSRAKRSGSGVKQTLNFDLLKLAGDVESNPGPSRGHMTEYKPTVRLATRDDVPRAVRTLAAAFADYPATRHTVDPDRHIERVTELQELFLTRVGLDIGKVWVADDGAAVAVWTTPESVEAGAVFAEIGPRMAELSGSRLAAQQQMEGLLAPHRPKEPAWFLATVGVSPDHQGKGLGSAVVLPGVEAAERAGVPAFLETSAPRNLPFYERLGFTVTADVEVPEGPRTWCMTRKPGA
B2: CD8SP-BCMA-FHVH-93-G4S-CD19-MOR0028-scFv-hCD8TM-BBZ-T2A-PAC (protein)
chain: ACEVQLLESGGGLIQPGGSLRLSCAASGFTFSSHAMTWVRQAPGKGLEWVSAISGSGDYTHYADSVKGRFTISRDNSKNTVYLQMNSLRAEDSAVYYCAKDEDGGSLLGHRGQGTLVTVSSGTGGGGSGGGGSGGGGSEFINIYNAEPANPSEKNSPEFDIVMTQSPATLSLSPGERATLSCRSSKSLQNVNGNTYLYWFQQKPGQSPQLLIYRMSNLNSGVPDRFSGSGSGTEFTLTISSLEPEDFAVYYCMQHLEYPITFGAGTKLEIKGGGGSGGGGSGGGGSEVQLVESGGGLVKPGGSLKLSCAASGYTFTSYVMHWVRQAPGKGLEWIGYINPYNDGTKYNEKFQGRVTISSDKSISTAYMELSSLRSEDTAMYYCARGTYYYGTRVFDYWGQGTLVTVSSTRTTTPAPRPPTPAPTIASQPLSLRPEACRPAAGGAVHTRGLDFACDIYIWAPLAGTCGVLLLSLVITLYCKRGRKKLLYIFKQPFMRPVQTTQEEDGCSCRFPEEEEGGCELRVKFSRSADAPAYQQGQNQLYNELNLGRREEYDVLDKRRGRDPEMGGKPRRKNPQEGLYNELQKDKMAEAYSEIGMKGERRRGKGHDGLYQGLSTATKDTYDALHMQALPPRSSGSGEGRGSLLTCGDVEENPGPHMTEYKPTVRLATRDDVPRAVRTLAAAFADYPATRHTVDPDRHIERVTELQELFLTRVGLDIGKVWVADDGAAVAVWTTPESVEAGAVFAEIGPRMAELSGSRLAAQQQMEGLLAPHRPKEPAWFLATVGVSPDHQGKGLGSAVVLPGVEAAERAGVPAFLETSAPRNLPFYERLGFTVTADVEVPEGPRTWCMTRKPGA
B3: 22119 (protein)
chain: MALPVTALLLPLALLLHAARPDIQMTQSPSSLSASVGDRVTITCKASDHINNWLAWYQQKPGQAPKLLIYGATTLETGVPSRFSGSGSGTDYTLTISSLQPEDFATYYCQQSWNTPWTFGQGTKLEIKRLEADVSPKPTIFLPSIAETKLQKAGTYLCLLEKFFPDVIKIHWQEKKSNTILGSQEGNTMKTNDTYMKFSWLTVPEKSLDKEHRCIVRHENNKNGVDQEIIFPPIKTDVITMDPKDNCSKDANDTLLLQLTNTSAYYMYLLLLLKSVVYFAIITCCLLRRTAFCCNGEKSRAKRSGSGATNFSLLKQAGDVEENPGPTSATMDWIWRILFLVGAATGAHSGPQVQLQESGGGLAQAGGSLRLSCAASGRTFSMGWFRQAPGKEREFVAAITYSGGSPYYASSVRGRFTISRDNAKNTVYLQMNSLKPEDTAVYYCAANPTYGSDWNAENWGQGTQVTVSSGSGGGGSGGGGSGGGGSFEQVQLQQPGAELVKPGASVKMSCKASGYAFSSYWINWMKQKPGQGLEWIGQIYPGDGDTNYNGKFKGRATLTADTSSSTAYMQLSSLTSEDSAVYFCARSITTVVGCAMDYWGQGTSVTVSSTRPHTKPSVFVMKNGTNVACLVKEFYPKDIRINLVSSKKITEFDPAIVISPSGKYNAVKLGKYEDSNSVTCSVQHDNKTVHSTDFEVKTDSTDHVKPKETENTKQPSKSCHKPKAIVHTEKVNMMSLTVLGLRMLFAKTVAVNFLLTAKLFFLRAKRSGSGVKQTLNFDLLKLAGDVESNPGPSRGHMTEYKPTVRLATRDDVPRAVRTLAAAFADYPATRHTVDPDRHIERVTELQELFLTRVGLDIGKVWVADDGAAVAVWTTPESVEAGAVFAEIGPRMAELSGSRLAAQQQMEGLLAPHRPKEPAWFLATVGVSPDHQGKGLGSAVVLPGVEAAERAGVPAFLETSAPRNLPFYERLGFTVTADVEVPEGPRTWCMTRKPGA
B4: 22125 (protein)
chain: MALPVTALLLPLALLLHAARPEVQLVESGGGLVQAGGSLRLSCAASGRTFSMGWFRQAPGKEREFVAAITYSGGSPYYADSVKGRFTISRDNAKNTVYLQMNSLKPEDTAVYYCAANPTYGSDWNAENWGQGTQVTVSSGTGGGGSGGGGSGGGGSEFDIQMTQSPSSLSASVGDRVTITCKASDHINNWLAWYQQKPGQAPKLLIYGATTLETGVPSRFSGSGSGTDYTLTISSLQPEDFATYYCQQSWNTPWTFGQGTKLEIKRLEDLKNVFPPEVAVFEPSKAEIAHTQKATLVCLATGFYPDHVELSWWVNGKEVHSGVCTDPQPLKEQPALNDSRYCLSSRLRVSATFWQNPRNHFRCQVQFYGLSENDEWTQDRAKPVTQIVSAEAWGRADCGITSASYHQGVLSATILYEILLGKATLYAVLVSALVLMAMVKRKDSRGRAKRSGSGATNFSLLKQAGDVEENPGPTSATMDWIWRILFLVGAATGAHSGPQVQLQESGGGLAQAGGSLRLSCAASGRTFSMGWFRQAPGKEREFVAAITYSGGSPYYASSVRGRFTISRDNAKNTVYLQMNSLKPEDTAVYYCAANPTYGSDWNAENWGQGTQVTVSSGSGGGGSGGGGSGGGGSFEQVQLQQPGAELVKPGASVKMSCKASGYAFSSYWINWMKQKPGQGLEWIGQIYPGDGDTNYNGKFKGRATLTADTSSSTAYMQLSSLTSEDSAVYFCARSITTVVGCAMDYWGQGTSVTVSSTRIQNPDPAVYQLRDSKSSDKSVCLFTDFDSQTNVSQSKDSDVYITDKCVLDMRSMDFKSNSAVAWSNKSDFACANAFNNSIIPEDTFFPSSDVPCDVKLVEKSFETDTNLNFQNLSVIGFRILLLKVAGFNLLMTLRLWSSRAKRSGSGVKQTLNFDLLKLAGDVESNPGPSRGHMTEYKPTVRLATRDDVPRAVRTLAAAFADYPATRHTVDPDRHIERVTELQELFLTRVGLDIGKVWVADDGAAVAVWTTPESVEAGAVFAEIGPRMAELSGSRLAAQQQMEGLLAPHRPKEPAWFLATVGVSPDHQGKGLGSAVVLPGVEAAERAGVPAFLETSAPRNLPFYERLGFTVTADVEVPEGPRTWCMTRKPGA
B5: 22110 (protein)
chain: MALPVTALLLPLALLLHAARPQLQLQESGPGLVKPSETLSLTCTVSGDSISSGDYYWGWIRQPPGKGLEWIGHIYYSGVTYYNPSLKSRVTISVDTSRNQFSLKLSSVTAADTAVYYCTREDSSNWRSRGQGTLVTVSSGTGGGGSGGGGSGGGGSEFDIQMTQSPSSLSASVGDRVTITCKASDHINNWLAWYQQKPGQAPKLLIYGATTLETGVPSRFSGSGSGTDYTLTISSLQPEDFATYYCQQSWNTPWTFGQGTKLEIKRLEDLKNVFPPEVAVFEPSEAEISHTQKATLVCLATGFYPDHVELSWWVNGKEVHSGVCTDPQPLKEQPALNDSRYCLSSRLRVSATFWQNPRNHFRCQVQFYGLSENDEWTQDRAKPVTQIVSAEAWGRADCGFTSESYQQGVLSATILYEILLGKATLYAVLVSALVLMAMVKRKDSRGRAKRSGSGATNFSLLKQAGDVEENPGPTSMDWIWRILFLVGAATGAHSFEQVQLQQPGAELVKPGASVKMSCKASGYAFSSYWINWMKQKPGQGLEWIGQIYPGDGDTNYNGKFKGRATLTADTSSSTAYMQLSSLTSEDSAVYFCARSITTVVGCAMDYWGQGTSVTVSSTRIQNPDPAVYQLRDSKSSDKSVCLFTDFDSQTNVSQSKDSDVYITDKCVLDMRSMDFKSNSAVAWSNKSDFACANAFNNSIIPEDTFFPSPESSCDVKLVEKSFETDTNLNFQNLSVIGFRILLLKVAGFNLLMTLRLWSSRAKRSGSGVKQTLNFDLLKLAGDVESNPGPSRGHMTEYKPTVRLATRDDVPRAVRTLAAAFADYPATRHTVDPDRHIERVTELQELFLTRVGLDIGKVWVADDGAAVAVWTTPESVEAGAVFAEIGPRMAELSGSRLAAQQQMEGLLAPHRPKEPAWFLATVGVSPDHQGKGLGSAVVLPGVEAAERAGVPAFLETSAPRNLPFYERLGFTVTADVEVPEGPRTWCMTRKPGA

Key:
Assay type in all cases: cell-based
RAJI cells = assay: JNG assay, co-culture with RAJI cells; details: co-culture with Raji; for NFAT-GFP ASSAY: Raji: JNG cells expressing construct
Procedure, shortened: (§1)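 Jurkat-NFAT-GFP (JNG) cells stably expressing SAR constructs via lentiviral transduction and puromycin/blasticidin selection were cocultured with target cells at E:T ~1:2 for ~4–18 h. NFAT-driven GFP was measured by FACS versus parental JNG cells; scores +/- to 5+ denote ~5–50% GFP-positive cells.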

RS;411 = assay: JNG assay, co-culture with RS;411 cells; details: co-culture with RS411
Procedure, shortened: as §1

RAJI-CD19-KO cells = assay: JNG assay, co-culture with RAJI-CD19-KO cells; details: co-culture with Raji-CD19-KO
Procedure, shortened: as §1

| Molecule | NFAT-GFP ASSAY: Raji (RAJI cells) | NFAT-GFP ASSAY: RS411 (RS;411) | NFAT-GFP ASSAY: Raji-CD19-KO (RAJI-CD19-KO cells) | NFAT-GFP ASSAY (JNG): GFP induction, Raji (RAJI cells) | NFAT-GFP ASSAY (JNG): GFP induction, RS411 (RS;411) | NFAT-GFP ASSAY (JNG): GFP induction, Raji-CD19-KO (RAJI-CD19-KO cells) |
| --- | --- | --- | --- | --- | --- | --- |
| B1 | 5+ (refer to approximately 5%, 10%, 20%, 30%, 40% and 50% GFP positive cells) | 5+ (refer to approximately 5%, 10%, 20%, 30%, 40% and 50% GFP positive cells) | 5+ (refer to approximately 5%, 10%, 20%, 30%, 40% and 50% GFP positive cells) |  |  |  |
| B2 |  |  |  | 4+ (refer to approximately 5%, 10%, 20%, 30%, 40% and 50% GFP positive cells) | 5+ (refer to approximately 5%, 10%, 20%, 30%, 40% and 50% GFP positive cells) | 3+ (refer to approximately 5%, 10%, 20%, 30%, 40% and 50% GFP positive cells) |
| B3 | 4+ (refer to approximately 5%, 10%, 20%, 30%, 40% and 50% GFP positive cells) | 3+ (refer to approximately 5%, 10%, 20%, 30%, 40% and 50% GFP positive cells) | 3+ (refer to approximately 5%, 10%, 20%, 30%, 40% and 50% GFP positive cells) |  |  |  |
| B4 | 4+ (refer to approximately 5%, 10%, 20%, 30%, 40% and 50% GFP positive cells) | +/- (refer to approximately 5%, 10%, 20%, 30%, 40% and 50% GFP positive cells) | 5+ (refer to approximately 5%, 10%, 20%, 30%, 40% and 50% GFP positive cells) |  |  |  |
| B5 | 5+ (refer to approximately 5%, 10%, 20%, 30%, 40% and 50% GFP positive cells) | 4+ (refer to approximately 5%, 10%, 20%, 30%, 40% and 50% GFP positive cells) | 4+ (refer to approximately 5%, 10%, 20%, 30%, 40% and 50% GFP positive cells) |  |  |  |
